Experimental data from patent publication US20090010911A1, “METHODS AND COMPOSITIONS FOR AFFECTING CYCLOPHILIN A REGULATION OF KINASES IN MODULATING CELLULAR ACTIVITIES” (IOWA STATE UNIVERSITY RESEARCH FOUNDATION, INC., priority 2007, published 2009).
Each block holds one substance with its values, some of them ahead of it.

Legend:
Itk full-length enzyme [1] = biological target: T1, Itk full-length enzyme (Mus musculus, UniProt Q03526); test: In vitro kinase assay with western blotting, phosphorylation of SH2 domain-containing substrates with added free SH2 domain or CypA; assay type: biochemical
T1 construct: Full-length Itk, Btk and Tec and the Itk kinase domain fragments were PCR amplified; made in house; host or cells: Sf9 insect cells (baculovirus), co-infected 1:1 with Lck baculovirus
T1 sequence (Q03526 1-625): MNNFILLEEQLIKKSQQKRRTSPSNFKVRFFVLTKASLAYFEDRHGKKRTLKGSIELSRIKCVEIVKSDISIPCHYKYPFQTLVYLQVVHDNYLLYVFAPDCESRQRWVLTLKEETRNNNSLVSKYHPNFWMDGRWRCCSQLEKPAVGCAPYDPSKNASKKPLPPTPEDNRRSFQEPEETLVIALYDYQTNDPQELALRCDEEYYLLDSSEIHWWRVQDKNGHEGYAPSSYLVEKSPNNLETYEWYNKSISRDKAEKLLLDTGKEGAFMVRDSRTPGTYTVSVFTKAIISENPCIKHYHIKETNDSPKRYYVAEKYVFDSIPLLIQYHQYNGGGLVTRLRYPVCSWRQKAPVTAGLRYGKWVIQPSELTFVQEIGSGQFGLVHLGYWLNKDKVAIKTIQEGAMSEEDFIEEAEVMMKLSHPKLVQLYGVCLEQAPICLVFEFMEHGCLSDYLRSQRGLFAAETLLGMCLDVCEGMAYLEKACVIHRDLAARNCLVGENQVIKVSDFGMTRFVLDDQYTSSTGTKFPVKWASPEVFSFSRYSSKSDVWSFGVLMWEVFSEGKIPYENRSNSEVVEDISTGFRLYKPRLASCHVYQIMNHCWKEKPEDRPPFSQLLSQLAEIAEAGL
Experimental: Substrate used in each experiment is indicated above each set of blots. 4(a) (left) Itk 32 substrate was incubated with Itk full-length enzyme as before (lane 1), or with Itk 32 domain:free Itk SH2 domain in ratios of 1:10, 1:25 or 1:50 (lanes 2-4, respectively) or equivalent ratios of PI3K N-terminal SH2 domain (lanes 5-7) and subjected to an in vitro kinase assay. […] Coomassie stain and an anti-FLAG blot (bottom panels) show protein levels. (right) The PLCγ1 SH2 domain competes with the PLCγ1 substrate in a similar manner. Lane 1 contains only Itk enzyme and PLCγ1 SH2C-Y783-substrate without additional free SH2 domain. Ratios of free SH2 domain to substrate are 1:5, 1:10 or 1:50 in lanes 2-4, respectively and equivalent ratios of PI3K SH2 domain are used in lanes 5-7. Coomassie stain of the gel and an anti-Itk blot (bottom panels) show protein levels. 4(b) Same experiment as shown in (a) using the Grb2 SH2 domain as a control. (left) Itk 32 substrate was incubated with Itk full-length enzyme (lane 1), or with Itk 32 domain:free Itk SH2 domain in ratios of 1:10 and 1:25 (lanes 2 & 3) or equivalent ratios of Grb2 SH2 domain (lanes 4 & 5) and subjected to an in vitro kinase assay. (right) Identical experiment following PLCγ1 substrate phosphorylation in the presence of the PLCγ1 and Grb2 SH2 domains. Lane 1 is PLCγ1 substrate alone; lanes 2 & 3 are PLCγ1 substrate:PLCγ1 SH2 domain in a 1:10 and 1:25 ratio, respectively and lanes 4 & 5 are identical ratios of PLCγ1 substrate:Grb2 SH2 domain. 4(c) The Itk SH2 domain competes with autophosphorylation of Y180 within full length Itk. For lanes 2-4, the amount of free SH2 domain is the same as used in panel (a), lanes 2-4. No exogenous SH2 domain has been added in lane 1 and full length Itk is both the enzyme and the substrate. Coomassie stain and an anti-FLAG blot (bottom panels) show protein levels. […] Initial velocities are shown for phosphorylation of peptide B (sequence shown in FIG. 5a) by full length Itk in the absence (column 1) and presence (column 2 and 3) of Itk SH2 domain. […]

full length Itk = biological target: T2, full length Itk (Mus musculus, UniProt Q03526); test: In vitro Itk kinase assay using Peptide B as the substrate (initial velocities); assay type: biochemical; conditions: CypA to Itk 0 to 100 times excess; Itk 100 and 600 nM
T2 construct: made in house; host or cells: Sf9 insect cells (baculovirus), co-infected 1:1 with Lck baculovirus
T2 sequence (Q03526 1-625): T1 sequence (Q03526 1-625)
Experimental: Substrate used in each experiment is indicated above each set of blots. 4(a) (left) Itk 32 substrate was incubated with Itk full-length enzyme as before (lane 1), or with Itk 32 domain:free Itk SH2 domain in ratios of 1:10, 1:25 or 1:50 (lanes 2-4, respectively) or equivalent ratios of PI3K N-terminal SH2 domain (lanes 5-7) and subjected to an in vitro kinase assay. […] Coomassie stain and an anti-FLAG blot (bottom panels) show protein levels. (right) The PLCγ1 SH2 domain competes with the PLCγ1 substrate in a similar manner. Lane 1 contains only Itk enzyme and PLCγ1 SH2C-Y783-substrate without additional free SH2 domain. Ratios of free SH2 domain to substrate are 1:5, 1:10 or 1:50 in lanes 2-4, respectively and equivalent ratios of PI3K SH2 domain are used in lanes 5-7. Coomassie stain of the gel and an anti-Itk blot (bottom panels) show protein levels. 4(b) Same experiment as shown in (a) using the Grb2 SH2 domain as a control. (left) Itk 32 substrate was incubated with Itk full-length enzyme (lane 1), or with Itk 32 domain:free Itk SH2 domain in ratios of 1:10 and 1:25 (lanes 2 & 3) or equivalent ratios of Grb2 SH2 domain (lanes 4 & 5) and subjected to an in vitro kinase assay. […]
The ratio of CypA to Itk varied between o and 100 times excess CypA. […] No change in Peptide B phosphorylation is detected. […]

Itk = biological target: T3, Itk (Mus musculus, UniProt Q03526); test: Pull-down experiment using purified Itk and purified CypA; assay type: binding; conditions: full length Itk or kinase domain alone immobilized on beads
T3 construct: Full-length Itk, Btk and Tec and the Itk kinase domain fragments were PCR amplified; made in house; host or cells: Sf9 insect cells (baculovirus), co-infected 1:1 with Lck baculovirus
T3 sequence (Q03526 1-625): T1 sequence (Q03526 1-625)
Experimental: In FIG. 16 full length Itk is immobilized on beads that are incubated with CypA. In FIG. 17 the kinase domain alone is immobilized on beads and incubated with CypA. […] The kinase domain alone contains the substrate docking site and so it is likely that CypA interacts with the Itk kinase domain in a manner that either completely or partially occludes the SH2 docking site.

Itk full-length enzyme [2] = biological target: T1, Itk full-length enzyme; conditions: published data (Brazin et al. 2002); cited from earlier work
Itk LKD enzyme = biological target: T4, Itk LKD enzyme (Mus musculus, UniProt Q03526); test: Quantitative kinase assay, Km determination for Peptide B and PLCγ1 SH2C-Peptide B fusion; assay type: biochemical; conditions: phosphorylation by Itk LKD enzyme 0.9 μM, 200 μM ATP, room temperature
T4 construct: linker kinase domain (Itk LKD); made in house; host or cells: Sf9 insect cells (baculovirus), co-infected 1:1 with Lck baculovirus
T4 sequence (Q03526 344-625 limits assumed): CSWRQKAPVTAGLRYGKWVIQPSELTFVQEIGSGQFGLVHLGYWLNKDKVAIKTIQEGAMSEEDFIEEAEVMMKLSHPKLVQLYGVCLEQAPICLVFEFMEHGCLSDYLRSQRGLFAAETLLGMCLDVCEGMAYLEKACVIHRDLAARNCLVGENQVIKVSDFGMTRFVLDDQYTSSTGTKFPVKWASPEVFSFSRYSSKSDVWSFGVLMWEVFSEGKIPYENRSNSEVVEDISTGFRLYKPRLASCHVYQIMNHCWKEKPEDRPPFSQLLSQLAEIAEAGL
Text: 5(a) Construction of a PLCγ1 SH2C-Peptide B fusion protein was based on alignment of Y783 within the PLCγ1 linker and the Tyr of Peptide B. The 14 amino acids of Peptide B were used to replace the last 16 amino acids of PLCγ1 SH2C-Y783-. The Tyr that is phosphorylated in each substrate is boxed. A mutant construct is also shown that contains serine in place of the tyrosine of peptide B. This site was mutated to serine instead of phenylalanine due to solubility problems associated with the Tyr to Phe mutation. 5(b) FLAG-tagged Itk LKD enzyme (1 μM) was incubated with 20 μM of the PLCγ1 SH2C-Peptide B fusion protein (lane 4) or 20 μM of the PLCγ1 SH2C-Peptide B(YS) mutant protein (lane 5) in an in vitro kinase assay. Lanes 1-3 are Itk enzyme alone, PLCγ1 SH2C-Peptide B substrate alone and PLCγ1 SH2C-Peptide B(YS) substrate alone, respectively, that have each been subjected to the same in vitro kinase assay conditions. (c & d) FLAG-tagged Itk LKD enzyme was incubated with increasing amounts of biotinylated PLCγ1 SH2C-Peptide B 5(c) or biotinylated Peptide B alone 5(d) in an in vitro kinase assay. 5(e) Kinetic parameters describing phosphorylation of Peptide B and the PLCγ1 SH2C-Peptide B fusion protein by Itk. Data shown are the average of two independent experiments. […]

effect on phosphorylation of Itk SH3-SH2 protein substrate (Y180) (Itk full-length enzyme [1]; CypA:Itk 32 ratios 0.1:1, 1:1, 10:1, 25:1, signal reduced at 10:1 and 25:1): reduce phosphorylation | effect on phosphorylation kinetics of Peptide B (full length Itk): no effect | interaction with Itk (pull-down) (Itk): interacts directly with Itk
Substance: CypA: peptidyl-prolyl isomerase Cyclophilin A, target of the immunosuppressive drug cyclosporin A
effect on autophosphorylation of Itk in an in vitro kinase assay (Itk full-length enzyme [2]): reduces autophosphorylation of Itk

inhibition of PLCγ1 SH2C-Y783- substrate phosphorylation by free SH2 domain (Itk full-length enzyme [1]; substrate:free SH2 domain ratios 1:5 to 1:50): do not inhibit | inhibition of Itk 32 substrate phosphorylation (Y180) by free SH2 domain (Itk full-length enzyme [1]; substrate:free SH2 domain ratios 1:10, 1:25, 1:50): do not inhibit
Substance: Grb2 SH2 domain: Grb2 SH2 domain, control SH2 domain [reference compound]

Substance: Aminohexanoyl biotin-EQEDEPEGIYGVLF-NH2 [Peptide B, reference compound]
Km (Itk LKD enzyme): 87 µM
